Results on one substance are retold here after patent US20260284241A1, “DOSAGE REGIMEN FOR SHORT-LIVED RADIOISOTOPE” (AdvanCell Pty Limited, priority 2023, published 2026).

The test system of the series is metastatic castration-resistant prostate cancer. The series is described as follows: 212Pb SPECT/CT imaging (biodistribution) in a patient with metastatic castration-resistant prostate cancer. The series is classed as in vivo, human. As to conditions: 60 MBq. On the procedure:
To gauge the biodistribution and inform patient tolerability of a ^212Pb radiopharmaceutical comprising an acetamide-based chelator, 60 MBq of ^212Pb-ADVC001 was administered to a person with metastatic castration-resistant prostate cancer. SPECT/CT imaging was performed at 1.5, 5, 20, and 28 h following infusion. […] FIG. 3B depicts sagittal and coronal images at 1.5 h after injection (p.i.). Further details are published in Griffths et al., Journal of Nuclear Medicine, 2024, 65 (7), the entire contents of which are hereby incorporated herein by reference.

“HO-Glu-CO-Lys[SubA-D-Lys-D-Phe-D-Tyr(3I)-(Pent-^212Pb-DO3AM)]-OH [^212Pb-ADVC001]”: the kidney clearance result (patient with mCRPC, SPECT/CT (FIG. 3A)) is “rapid kidney clearance”. For the same substance, under “person with mCRPC, SPECT/CT at 1.5, 5, 20 and 28 h following infusion”, the “tumour uptake on 212Pb SPECT/CT images” value is “rapid tumour uptake”.
